Assays:
[1] = biological target: human NatA complex (hNAA15/hNAA10) (human) (UniProt Q9BXJ9)
[2] = biological target: human NatA complex (hNAA15/hNAA10) (human) (UniProt Q9BXJ9); experiment: ITC; MicroCal iTC200, 20 °C; 25 mM HEPES pH 7.0, 200 mM NaCl, 1 mM DTT; 15 μM hNatA or hNatE in the cell, 150 μM MBP-HYPK in the syringe

Chain of human NatA complex (hNAA15/hNAA10) (human) (Q9BXJ9 whole entry, chain 1 of 2): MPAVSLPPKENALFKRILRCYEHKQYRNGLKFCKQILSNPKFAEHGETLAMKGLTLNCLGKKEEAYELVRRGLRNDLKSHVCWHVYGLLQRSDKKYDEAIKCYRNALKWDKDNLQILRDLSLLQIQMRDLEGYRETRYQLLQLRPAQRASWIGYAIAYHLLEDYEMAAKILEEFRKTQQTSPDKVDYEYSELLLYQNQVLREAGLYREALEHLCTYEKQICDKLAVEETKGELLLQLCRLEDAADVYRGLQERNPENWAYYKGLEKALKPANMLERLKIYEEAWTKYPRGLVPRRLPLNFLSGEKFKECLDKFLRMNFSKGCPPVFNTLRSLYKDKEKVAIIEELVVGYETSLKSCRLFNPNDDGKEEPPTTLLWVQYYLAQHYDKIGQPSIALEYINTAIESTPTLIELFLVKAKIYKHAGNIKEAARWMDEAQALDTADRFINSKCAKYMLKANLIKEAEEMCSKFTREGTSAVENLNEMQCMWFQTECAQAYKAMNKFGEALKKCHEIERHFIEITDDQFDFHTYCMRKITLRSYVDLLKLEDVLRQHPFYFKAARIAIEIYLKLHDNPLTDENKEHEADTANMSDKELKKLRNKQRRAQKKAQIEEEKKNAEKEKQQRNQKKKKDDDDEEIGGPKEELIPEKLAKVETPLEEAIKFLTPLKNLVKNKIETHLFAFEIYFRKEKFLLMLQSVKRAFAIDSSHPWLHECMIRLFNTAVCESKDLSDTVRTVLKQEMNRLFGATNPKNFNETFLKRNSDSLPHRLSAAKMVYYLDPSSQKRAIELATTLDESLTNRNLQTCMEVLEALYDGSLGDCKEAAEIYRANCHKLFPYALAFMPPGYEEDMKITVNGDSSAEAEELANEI
Chain of human NatA complex (hNAA15/hNAA10) (human) (P41227 whole entry, chain 2 of 2, further chain): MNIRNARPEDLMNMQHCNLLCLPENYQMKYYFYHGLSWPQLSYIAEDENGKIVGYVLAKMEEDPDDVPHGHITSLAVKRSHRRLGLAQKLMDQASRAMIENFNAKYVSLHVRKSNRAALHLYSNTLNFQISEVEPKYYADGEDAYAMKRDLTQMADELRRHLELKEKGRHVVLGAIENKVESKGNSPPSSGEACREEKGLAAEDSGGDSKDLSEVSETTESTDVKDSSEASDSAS
Chain of maltose-binding protein (MBP) tagged HYPK (from UniProt Q9NX55 1-121) (natural protein) (Q9NX55 whole entry): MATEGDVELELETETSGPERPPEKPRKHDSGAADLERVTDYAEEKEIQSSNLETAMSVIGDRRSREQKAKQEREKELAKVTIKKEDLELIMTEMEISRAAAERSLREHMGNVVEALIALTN
Chain of maltose-binding protein (MBP) tagged HYPK (from UniProt Q9NX55 1-121) (natural protein; other documents disagree on this pair) (Q9NX55 whole entry): as above

inhibition of hNatA (100 nM) acetylation activity against SASE peptide, MBP-HYPK titrated [1] [%] | Kd [2] [nM] | Substance
90 |  | maltose-binding protein (MBP) tagged HYPK (from UniProt Q9NX55 1-121) (natural protein)
 | 29.9 | maltose-binding protein (MBP) tagged HYPK (from UniProt Q9NX55 1-121) (natural protein; other documents disagree on this pair)

From PMC7010799
